Reference: the Human Domainome abundance scans (Beltran et al. 2025)
± gives the uncertainty stated by the source.

B1: Protein piccolo, residues 1058 to 1114; numbered along this chain, Q9Y6V0 (parent)
chain: TCPLCKTELNIGSKDPPNFNTCTECKNQVCNLCGFNPTPHLTEIQEWLCLNCQTQRA

Variants of: B1
Assay: abundance fitness (aPCA) (normalised: wild type 0, dead -1); higher = more abundant; growth selection in yeast, the domain comes from the species named
Settings: Homo sapiens

Point of comparison: TCPLCKTELVIGSKDPPNFNTCTECKNQVCNLCGFNPTPHLTEIQEWLCLNCQTQRA [N10V], abundance fitness -0.211 ± 0.087. Against it:
- TCPLCKTELNIGSKDPPNFNTCTECKNQVCNLCGFNPTPHLTEIQEWLCFNCQTQRA [L50F] — within error, -0.25 ± 0.14
- TCPLCKTELNIGSKDPPNFNTCTECKNQVCNLCGFNPTPHLTEIQEWLCKNCQTQRA [L50K] — higher, 0.078 ± 0.19
- TCPLCKMELNIGSKDPPNFNTCTECKNQVCNLCGFNPTPHLTEIQEWLCLNCQTQRA [T7M] — within error, -0.301 ± 0.1
- TCPLCKTELKIGSKDPPNFNTCTECKNQVCNLCGFNPTPHLTEIQEWLCLNCQTQRA [N10K] — higher, 0.2 ± 0.12
- TCPLCKTELTIGSKDPPNFNTCTECKNQVCNLCGFNPTPHLTEIQEWLCLNCQTQRA [N10T] — higher, 0.062 ± 0.11
- TCPLCKTELNIGSKDPPNFNTCTECKNMVCNLCGFNPTPHLTEIQEWLCLNCQTQRA [Q28M] — higher, 0.186 ± 0.14
- TCPLCKTELNIGSKDPPNFNTCTECKNEVCNLCGFNPTPHLTEIQEWLCLNCQTQRA [Q28E] — within error, -0.164 ± 0.13
- TCPLCKTELNIGSKDPPNFNTCTECKNYVCNLCGFNPTPHLTEIQEWLCLNCQTQRA [Q28Y] — within error, -0.179 ± 0.18
- TCPLCKTELNIGSCDPPNFNTCTECKNQVCNLCGFNPTPHLTEIQEWLCLNCQTQRA [K14C] — lower, -0.643 ± 0.13
- TCPLCKTELNIGSFDPPNFNTCTECKNQVCNLCGFNPTPHLTEIQEWLCLNCQTQRA [K14F] — within error, -0.36 ± 0.13
- TCPLCKTELNIGSKDPPNFNTCTECKNQVCNLCGFNPTPHLTEFQEWLCLNCQTQRA [I44F] — higher, 0.155 ± 0.18
- TCPLCKTELNIGSKDPPNFNTCTECKNQVCNLCGFNPTPHLTEKQEWLCLNCQTQRA [I44K] — within error, 0.247 ± 0.46
- TCPLCKTELNIGSKDPPNFNTCTTCKNQVCNLCGFNPTPHLTEIQEWLCLNCQTQRA [E24T] — higher, 0.034 ± 0.099
- TCPLCKTELNIGSKDPPNFNTCTWCKNQVCNLCGFNPTPHLTEIQEWLCLNCQTQRA [E24W] — within error, -0.198 ± 0.083
- TCPLCKTELNIGSKDPPNFNTCTACKNQVCNLCGFNPTPHLTEIQEWLCLNCQTQRA [E24A] — within error, -0.061 ± 0.086
- TCPLCCTELNIGSKDPPNFNTCTECKNQVCNLCGFNPTPHLTEIQEWLCLNCQTQRA [K6C] — within error, -0.329 ± 0.12
- TCPLCPTELNIGSKDPPNFNTCTECKNQVCNLCGFNPTPHLTEIQEWLCLNCQTQRA [K6P] — higher, 0.104 ± 0.1
- TCPLCKTELNIGSKDPPNFNTCTECKNQVCNLCYFNPTPHLTEIQEWLCLNCQTQRA [G34Y] — within error, -0.15 ± 0.13
- TCPLCKTELNIGSKDPPNFNTCTECKNQVCNLCVFNPTPHLTEIQEWLCLNCQTQRA [G34V] — within error, -0.037 ± 0.094
- TCPLCKTELNIGSKDPPNFDTCTECKNQVCNLCGFNPTPHLTEIQEWLCLNCQTQRA [N20D] — higher, 0.186 ± 0.19
- RCPLCKTELNIGSKDPPNFNTCTECKNQVCNLCGFNPTPHLTEIQEWLCLNCQTQRA [T1R] — within error, -0.21 ± 0.25
- ICPLCKTELNIGSKDPPNFNTCTECKNQVCNLCGFNPTPHLTEIQEWLCLNCQTQRA [T1I] — within error, -0.024 ± 0.22
- TCPLCKTELNIYSKDPPNFNTCTECKNQVCNLCGFNPTPHLTEIQEWLCLNCQTQRA [G12Y] — within error, -0.137 ± 0.18
- TCPLCKTELNIGSKDPPNFNTCTECKNQVCQLCGFNPTPHLTEIQEWLCLNCQTQRA [N31Q] — higher, 0.014 ± 0.12
- TCPLCKTELNIGSKDPPNFNTCTECKNQVCGLCGFNPTPHLTEIQEWLCLNCQTQRA [N31G] — higher, 0.028 ± 0.096
- TCPLCKTELNIGSKDPPNFNTCTECKNQVCHLCGFNPTPHLTEIQEWLCLNCQTQRA [N31H] — higher, 0.118 ± 0.18
- TCPLCKTELNIGSKSPPNFNTCTECKNQVCNLCGFNPTPHLTEIQEWLCLNCQTQRA [D15S] — within error, -0.051 ± 0.1
- TCPLCKTELNIGSKWPPNFNTCTECKNQVCNLCGFNPTPHLTEIQEWLCLNCQTQRA [D15W] — within error, -0.328 ± 0.099
- TCPLCKTELNIGSKDPPGFNTCTECKNQVCNLCGFNPTPHLTEIQEWLCLNCQTQRA [N18G] — within error, -0.098 ± 0.1
- TCPLCKTELNIGSKDPPAFNTCTECKNQVCNLCGFNPTPHLTEIQEWLCLNCQTQRA [N18A] — within error, -0.199 ± 0.11
- TCPLCKTELNIGSKDPPPFNTCTECKNQVCNLCGFNPTPHLTEIQEWLCLNCQTQRA [N18P] — within error, -0.047 ± 0.16
- TCPLCKTELNIGSKDPPTFNTCTECKNQVCNLCGFNPTPHLTEIQEWLCLNCQTQRA [N18T] — within error, -0.089 ± 0.15
- TCTLCKTELNIGSKDPPNFNTCTECKNQVCNLCGFNPTPHLTEIQEWLCLNCQTQRA [P3T] — within error, -0.016 ± 0.12
- TCPLCKTELNIGSKDPPNFNTCTECKNQVCNLCGFNPTPHLTEIQEWLCLNCITQRA [Q53I] — within error, -0.25 ± 0.22
- TCPLCKTELNIGSKDPPNFNTCTECKNQVCNLCGFNPTPHLTEIQEWLCLNCYTQRA [Q53Y] — within error, -0.23 ± 0.18
- TCPLCKTELNIGSKDPPNFNTCTECKNQVCNLCGFNPTPHLTEIQEWLCLNCVTQRA [Q53V] — within error, -0.256 ± 0.12
- TCPLCKTELNIGSKDPPNFNTHTECKNQVCNLCGFNPTPHLTEIQEWLCLNCQTQRA [C22H] — lower, -0.567 ± 0.15
- TCPLCKTELNIGSKDPPNFNTRTECKNQVCNLCGFNPTPHLTEIQEWLCLNCQTQRA [C22R] — lower, -0.484 ± 0.11
- TCPLCKTELNIGSKDPPNFNTPTECKNQVCNLCGFNPTPHLTEIQEWLCLNCQTQRA [C22P] — lower, -0.938 ± 0.17
- TCPLCKTCLNIGSKDPPNFNTCTECKNQVCNLCGFNPTPHLTEIQEWLCLNCQTQRA [E8C] — lower, -0.56 ± 0.098
- TCPLCKTGLNIGSKDPPNFNTCTECKNQVCNLCGFNPTPHLTEIQEWLCLNCQTQRA [E8G] — higher, -0.052 ± 0.071
- TCPLCKTALNIGSKDPPNFNTCTECKNQVCNLCGFNPTPHLTEIQEWLCLNCQTQRA [E8A] — within error, -0.244 ± 0.077
- TCPLCKTELNIGSKDPPNFNTCTECKNQVCNLCGFNPTPHLTEIQEWLCLNCQGQRA [T54G] — higher, 0.046 ± 0.14
- TCPLCKTELNIGSKDPPNFNTCTECKNQVCNLCGFNPTPHLTEIQEWLCLNCQHQRA [T54H] — within error, -0.076 ± 0.29
- TCPLCKTELNIGSKDPPNFNTCTECKNQVCNLCGFNPTPHLTEIQEWLCLNCQLQRA [T54L] — lower, -0.531 ± 0.1
- TCPLCKTELNIGSKDPPNFNTCTECKNQVCNLCGFNPTPHLTEIQEWLCLNCQVQRA [T54V] — within error, -0.198 ± 0.14
